# Measured values reported in patent publication US12662540B2, “Compositions and methods for inhibition of MICA/B shedding” (DANA-FARBER CANCER INSTITUTE, INC., priority 2017, dated 2026).
# What was measured:
# [1] = tested on: subcutaneous B16F10 tumors; test: Subcutaneous B16F10-MICA model; type: in vivo, mice (C57BL/6, Igh−/−)
# Experimental: C57BL/6 mice were injected subcutaneously with 1×10^6 B16F10 cells that had been transduced with different lentiviral vectors (ZsGreen reporter). Five days later, treatment was initiated with 7C6-mIgG2a, 7C6-mIgG2b-DANA, or isotype control (C1184) antibodies (200 μg/mouse). Treatment was continued as indicated in the relevant figures. For antibody blockade, Igh^−/− mice were given 200 μg/mouse of anti-NKG2D (HMG2D) or control IgG (MOPC-21) on days −1, 0, 5, 9, 14, and 19. Mice were bled on day 9. Tumor size was monitored with a digital caliper and the tumor area was calculated by multiplying the two largest diameters. To minimize suffering, the end point was defined as a tumor size of 200 mm2.
# C57BL/6 mice were injected subcutaneously with 1×10^6 B16F10 cells that had been transduced with different lentiviral vectors (ZsGreen reporter). Five days later, treatment was initiated with 7C6-mIgG2a, 7C6-mIgG2b-DANA, or isotype control (C1184) antibodies (200 μg/mouse). Treatment was continued as indicated in the relevant Figures. For antibody blockade, Igh^−/− mice were given 200 μg/mouse of anti-NKG2D (HMG2D) or control IgG (MOPC-21) on days −1, 0, 5, 9, 14, and 19. Mice were bled on day 9. Tumor size was monitored with a digital caliper and the area was calculated by multiplying the two largest diameters. To minimize suffering, the end point was defined as the time point when tumors reached a size of 200 mm^2.
# Igh^−/− mice were injected subcutaneously with 1×10^6 B16F10-MICA cells that had been transduced with a ZsGreen-based lentiviral vector that drives MICA expression. On days 5, 7 and 9 after tumor cell inoculation, mice were treated with 200 μg 7C6-mIgG2a or isotype control antibodies. On days 7 and 14, sets of mice were euthanized and tumors were removed. Tumors were then mechanically dissociated to preserve MICA integrity on the cell surface. Next, Fc receptors were blocked using Mouse True Stain FcX (Biolegend). Cells were subsequently stained with a PE-conjugated anti-mouse IgG antibody (Poly4053, Biolegend). Cells were then washed and stained with APC-conjugated anti-MICAS antibody (6D4), PE-Cγ7-CD45.2 and Zombie NIR (all from Biolegend). Viable tumor cells were identified by flow cytometry based on size, ZsGreen fluorescence and absence of CD45.2 expression. Samples were examined using a Sony Spectral Analyzer or Beckman Coulter CytoFLEX, and data were analyzed by FlowJo.
# MICA = test: ELISA for antibody binding to immobilized MICA extracellular domain (α1-α3 domains; alleles 002, 008, 009, 018); set-up: species or system human; conditions: immobilized antigen
# Experimental: (§1) ELISA experiments were performed in DELFIA® 96-well plates (Perkin Elmer) or in Nunc Maxisorp 96-wells plates (Thermo Scientific). Wells were coated with antigens by overnight incubation at 4° C. using 100 ng of protein in 100 μl of carbonate buffer, […]. Plates were subsequently washed with 1× Tris-buffered saline-Tween buffer and incubated for 2 hours with 2% bovine serum albumin (BSA) in phosphate buffered saline (PBS), pH 7.4, or DELFIA® Assay Buffer (Perkin Elmer) at room temperature. MICA antibodies were used at 1 μg/ml, unless indicated otherwise. Isotype controls were MPC-11 (mIgG2b) and MOPC-21 (mIgG1), but only MPC-11 is shown in the figures, given that no differences were observed between these controls. Human isotype control was a recombinant human IgG1 antibody (BE0096, BioXcell). Biotinylated goat anti-mouse IgG (Poly4053—Biolegend) was used as the secondary antibody which was followed by streptavidin-Europium (Perkin Elmer) and DELFIA® Enhancement Solution (Perkin Elmer). Europium fluorescence was quantified using an EnVision® microplate reader (Perkin Elmer). The HRP-conjugated secondary antibodies were Novex® Goat anti-human IgG (A24470, Life Technologies), Goat anti-mouse IgG1 (1070-05), IgG2a (1080-08), IgG2b (1090-05), and IgG3 (1100-05), and Goat anti-mouse IgG (31430, Thermo Scientific). […] Absorbance was read at 450 nm.
# MICA α3 domain = test: ELISA for antibody binding to immobilized MICA α3 domain; set-up: species or system human; conditions: fluorescence-based ELISA, immobilized antigen
# Experimental: as §1
molecule,measurement,setting,value
"7C6: monoclonal antibody from mice immunized with recombinant MICA α3 domain; parental mIgG2b; VH SEQ ID NO: 7, VL SEQ ID NO: 8 (antibody, mAb 7C6 heavy chain amino acid sequence; mAb 7C6 light chain amino acid sequence) VH: QIQLVQSGPELKKPGETVKVSCKASGYMFTNYAMNWVKQAPEKGLKWMGWINTHTGDPTYADDFKGRIAFSLETSASTAYLQINNLKNEDTATYFCVRTYGNYAMDYWGQGTSVTVSSAKTTAPSVYPLAPVCGDTTGSSVTLGCLVKGYFPEPVTLTWNSGSLSSGVHTFPAVLQSDLYTLSSSVTVTSS VL: DIQMTQTTSSLSASLGDRVTISCSASQDISNYLNWYQQKPDGTVKLLIYDTSILHLGVPSRFSGSGSGTDYSLTISNLEPEDIATYYCQQYSKFPRTFGGGTTLEIK","subcutaneous tumor growth inhibition, Igh−/− versus wild-type mice","[1]; B16F10-MICA, 200 μg",inhibited growth of subcutaneous B16F10-MICA melanomas more effectively in B cell deficient mice
same,therapeutic activity against subcutaneous tumors that secrete MICA or lack NKG2D ligands,[1]; Igh−/− mice,no therapeutic effect was observed
same,therapeutic activity against subcutaneous tumors expressing full-length MICA or MICB,"[1]; Igh−/− mice, treatment from day 5",restricted to subcutaneous tumors that expressed full-length MICA or MICB
same,receptor requirement for inhibition of subcutaneous tumor growth,"[1]; NKG2D blockade, DANA mutant",NKG2D and CD16 Fc receptors were also both required for inhibition of subcutaneous tumor growth
same,"clearance of secreted MICA protein (serum, day 9)",[1]; tumors secreting MICA,did not promote clearance of secreted MICA protein
same,"MICA and MICB shedding (serum, day 9)",[1]; tumors with full-length MICA or MICB,inhibited MICA and MICB shedding
same,binding to MICA full-length extracellular domain,MICA,also the full-length extracellular domain
same,binding to MICA α3 domain,MICA α3 domain,bound to the MICA α3 domain
